Data reported in patent US20030157554A1 (published 2003).
Where two headings read alike, the source gives them in different places. Blank lines part the entries; values can stand above or below the binder they belong to.

B1: FHOS (Genbank ID: AF113615) (other, human, UniProt Q9Y613 964-1164, looked up)
chain: TPQAAREVRIMQFCHTLREFALEYRTCRERVLQQQQKQATYRERNKTRGRMITETEKFSGVAGEAPSNPSVPVAVSSGPGRGDADSHASMKSLLTSRPEDTTHNRRSRGMVQSSSPIMPTVGPSTASPEEPPGSSLPSDTSDEIMDLLVQSVTKSSPRALAARERKRSRGNRKSLRRTLKSGLGDDLVQALGLSKGPGLEV
notes: range 964-1164; Prey from muscle library
B4: NAPA1 (Genbank ID: U39412) (other, human, UniProt P54920 1-295, looked up)
chain: MDNSGKEAEAMALLAEAERKVKNSQSFFSGLFGGSSKIEEACEIYARAANMFKMAKNWSAAGNAFCQAAQLHLQLQSKHDAATCFVDAGNAFKKADPQEAINCLMRAIEIYTDMGRFTIAAKHHISIAEIYETELVDIEKAIAHYEQSADYYKGEESNSSANKCLLKVAGYAALLEQYQKAIDIYEQVGTNAMDSPLLKYSAKDYFFKAALCHFCIDMLNAKLAVQKYEELFPAFSDSRECKLMKKLLEAHEEQNVDSYTESVKEYDSISRLDQWLTTMLLRIKKTIQGDEEDLR
notes: Full-length bait; Gal4-BD fusion
B6: S100A9 (Genbank ID: M26311) (other, human, UniProt P06702 1-114, looked up)
chain: MTCKMSQLERNIETIINTFHQYSVKLGHPDTLNQGEFKELVRKDLQNFLKKENKNEKVIEHIMEDLDTNADKQLSFEEFIMLMARLTWASHEKMHEGDEGPGHHHKPGLGEGTP
notes: range 1-114; Prey from liver and muscle libraries
B7: LZIP (Genbank ID: AF029674) (other, human, UniProt O43889 1-371, looked up)
chain: MELELDAGDQDLLAFLLEESGDLGTAPDEAVRAPLDWALPLSEVPSDWEVDDLLCSLLSPPASLNILSSSNPCLVHHDHTYSLPRETVSMDLESESCRKEGTQMTPQHMEELAEQEIARLVLTDEEKSLLEKEGLILPETLPLTKTEEQILKRVRRKIRNKRSAQESRRKKKVYVGGLESRVLKYTAQNMELQNKVQLLEEQNLSLLDQLRKLQAMVIEISNKTSSSSTCILVLLVSFCLLLVPAMYSSDTRGSLPAEHGVLSRQLRALPSEDPYQLELPALQSEVPKDSTHQWLDGSDCVLQAPGNTSCLLHYMPQAPSAEPPLEWPFPDLFSEPLCRGPILPLQANLTRKGGWLPTGSPSVILQDRYSG
notes: range 1-372; Prey from liver and muscle libraries; also called LIZP
B9: Synphilin (Genbank ID: AF076929) (other, human, UniProt Q9Y6H5 335-660, looked up)
chain: PHLAADNLDKIHDENGNNLLHIAASQGHAECLQHLTSLMGEDCLNERNTEKLTPAGLAIKNGQLECVRWMVSETEAIAELSCSKDFPSLIHYAGCYGQEKILLWLLQFMQEQGISLDEVDQDGNSAVHVASQHGYLGCIQTLVEYGANVTMQNHAGEKPSQSAERQGHTLCSRYLVVVETCMSLASQVVKLTKQLKEQTVERVTLQNQLQQFLEAQKSEGKSLPSSPSSPSSPASRKSQWKSPDADDDSVAKSKPGVQEGIQVLGSLSASSRARPKAKDEDSDKILRQLLGKEISENVCTQEKLSLEFQDAQASSRNSKKIPLEKR
notes: range 335-~660; Prey from kidney library; end of the fragment approximate; also called Synphilin I; Synphilin 1
B10: ATPase (ATP6N1) (Genbank ID: u73006) (other, human, UniProt Q93050 1-300, looked up)
chain: MGELFRSEEMTLAQLFLQSEAAYCCVSELGELGKVQFRDLNPDVNVFQRKFVNEVRRCEEMDRKLRFVEKEIRKANIPIMDTGENPEVPFPRDMIDLEANFEKIENELKEINTNQEALKRNFLELTELKFILRKTQQFFDEMADPDLLEESSSLLEPSEMGRGTPLRLGFVAGVINRERIPTFERMLWRVCRGNVFLRQAEIENPLEDPVTGDYVHKSVFIIFFQGDQLKNRVKKICEGFRASLYPCPETPQERKEMASGVNTRIDDLQMVLNQTEDHRQRVLQAAAKNIRVWFIKVRKM
notes: range 1-~300; Prey from liver library; end of the fragment approximate; also called Vacuolar-type H(+) ATPase; ATP6N17

How the values were obtained:
[1] = biological target: B10; assay: Y2H 1x1 mating, binder AD fusion, target BD fusion
[2] = biological target: T1, S100A6 (Genbank ID: M14300) (human, UniProt P06703 1-90); assay: Y2H 1x1 mating, binder AD fusion, target BD fusion
[3] = biological target: the molecule itself; assay: Y2H 1x1 mating, binder AD fusion, target BD fusion
[4] = biological target: B9; assay: Y2H 1x1 mating, binder AD fusion, target BD fusion
[5] = biological target: B9; assay: Y2H 1x1 mating, binder AD fusion, target BD fusion; remark: listed apart in the source
[6] = biological target: the molecule itself; assay: Y2H 1x1 mating, binder AD fusion, target BD fusion; remark: listed apart in the source
[7] = biological target: B7; assay: Y2H library screen, binder bait, target prey
[8] = biological target: B4; assay: Y2H library screen, binder bait, target prey
[9] = biological target: B7; assay: Y2H 1x1 mating, binder AD fusion, target BD fusion
[10] = biological target: the molecule itself; assay: Y2H 1x1 mating, binder AD fusion, target BD fusion; remark: listed apart in the source
[11] = biological target: B1; assay: Y2H 1x1 mating, binder AD fusion, target BD fusion
[12] = biological target: the molecule itself; assay: Y2H, baits tested against each other
[13] = biological target: T1, S100A6 (Genbank ID: M14300); assay: Y2H 1x1 mating, binder AD fusion, target BD fusion; remark: listed apart in the source
[14] = biological target: T2, Fibrinogen (Genbank ID: M58569), S100A1 interactor (human, UniProt P02671 345-545, limits assumed); assay: Y2H 1x1 mating, binder AD fusion, target BD fusion
T2 construct: range 345-~545; Prey from liver library found with S100A1; also called fibrinogen alpha subunit
T2 sequence (looked up): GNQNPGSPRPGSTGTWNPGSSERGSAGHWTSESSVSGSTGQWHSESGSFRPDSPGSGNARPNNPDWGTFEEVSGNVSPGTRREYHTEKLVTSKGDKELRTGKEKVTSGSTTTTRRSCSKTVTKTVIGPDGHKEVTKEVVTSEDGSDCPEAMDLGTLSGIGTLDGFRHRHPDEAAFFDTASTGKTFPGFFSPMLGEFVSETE

[15] = biological target: B6; assay: Y2H 1x1 mating, binder AD fusion, target BD fusion

Binder: B1
- binding result [1]: no binding
- binding result [2]: no binding
- binding result [3]: no binding
- binding result [4]: no binding

- binding result [5]: no binding
B2: S100A1-1 (other, human, UniProt P23297 1-94, looked up)
chain: MGSELETAMETLINVFHAHSGKEGDKYKLSKKELKELLQTELSGFLDAQKDVDAVDKVMKELDENGDGEVDFQEYVVLVAALTVACNNFFWENS
notes: Full-length bait; also called full length S100A1

B3: STAU (Genbank ID: AF061939) (other, human, UniProt O95793 6-577, looked up)
chain: VQVQNPSAALSGSQILNKNQSLLSQPLMSIPSTTSSLPSENAGRPIQNSALPSASITSTSAAAESITPTVELNALCMKLGKKPMYKPVDPYSRMQSTYNYNMRGGAYPPRYFYPFPVPPLLYQVELSVGGQQFNGKGKTRQAAKHDAAAKALRILQNEPLPERLEVNGRESEEENLNKSEISQVFEIALKRNLPVNFEVARESGPPHMKNFVTKVSVGEFVGEGEGKSKKISKKNAAIAVLEELKKLPPLPAVERVKPRIKKKTKPIVKPQTSPEYGQGINPISRLAQIQQAKKEKEPEYTLLTERGLPRRREFVMQVKVGNHTAEGTGTNKKVAKRNAAENMLEILGFKVPQAQPTKPALKSEEKTPIKKPGDGRKVTFFEPGSGDENGTSNKEDEFRMPYLSHQQLPAGILPMVPEVAQAVGVSQGHHTKDFTRAAPNPAKATVTAMIARELLYGGTSPTAETILKNNISSGHVPHGPLTRPSEQLDYLSRVQGFQVEYKDFPKNNKNEFVSLINCSSQPPLISHGIGKDVESCHDMAALNILKLLSELDQQSTEMPRTGNGPMSVCGRC
notes: range 6-578; Prey from brain library; also called Staufen
- binding result [6]: no binding

Binder: B4
- binding result [7]: binds

- binding result [8]: binds
- binding result [9]: no binding
B5: SYN4 (Genbank ID: u07158) (other, human, UniProt Q12846 158-297, looked up)
chain: RQLKITNAGMVSDEELEQMLDSGQSEVFVSNILKDTQVTRQALNEISARHSEIQQLERSIRELHDIFTFLATEVEMQGEMINRIEKNILSSADYVERGQEHVKTALENQKKARKKKVLIAICVSITVVLLAVIIGVTVVG
notes: Prey from brain and muscle libraries; also called Syntaxin 4
- binding result [10]: no binding

Binder: B6
- binding result [1]: no binding
- binding result [11]: no binding
- binding result [4]: no binding

Binder: B7
- binding result [10]: no binding

- binding result [13]: binds
- binding result [14]: no binding
- binding result [15]: binds
B8: S100B-1 (other, human, UniProt P04271 1-92, looked up)
chain: MSELEKAMVALIDVFHQYSGREGDKHKLKKSELKELINNELSHFLEEIKEQEVVDKVMETLDNDGDGECDFQEFMAFVAMVTTACHEFFEHE
notes: Full-length bait; also called full length S100B
- binding result [12]: binds

Binder: B9
- binding result [2]: no binding

Binder: B10
- binding result [2]: no binding
- binding result [3]: no binding
- binding result [4]: no binding
